Experimental data published in patent US20140234351A1, “CANCER VACCINES AND VACCINATION METHODS” (ImmunoCellular Therapeutics, Ltd., priority 2013, published 2014).

Target: HLA-A*0201 molecules on TAP-deficient T2 cells (human)
Test: T2 cell binding assay, fluorescence index (MFI peptide - MFI untreated)/MFI untreated
Settings: remark: other sources report otherwise

MFI index: > 1.5
Binder: VMAGVGSPYV [HER2/neu 773-782 HLA-A2 peptide]
